According to article doi:10.1101/2025.10.31.685832:

Target: MelA1 (Candidatus Melainabacteria bacterium isolate SJ512)
Test: SEC; size-exclusion chromatography of MelA1; column and buffer not told

For MelA1 (natural protein), the stoichiometry N was 2.
